Positions of bridges follow the written chain, without caps; N, C: chain ends. Non-standard residues stand in square brackets, D forms with d. Primed or numbered codes have the meaning given here. No end group written: not given here. PEG4′ = not defined here; NOTA′ = NOTA chelator
Experiments:
Integrin α6β4 protein [1] = assay: MST, dye-labelled integrin α6β4, run 3
Procedure: (§1) The affinity between these 18 polypeptides and integrin α6β4 was detected by microscale thermophoresis (MST) method as follows: [0053] 1) Integrin α6β4 protein was dissolved to 800 nM, and polypeptide was dissolved to 100 μM. [0054] 2) A RED-tris-NTA second-generation dye was diluted to 100 nM by using the MO series RED-tris-NTA protein labeling kit. [0055] 3) 100 μl α6β4 protein was mixed with 50 μl dye and incubated at room temperature for 30 min, so that the α6β4 protein binds to the dye. [0056] 4) 10 μl polypeptide was transferred into a PCR tube, and was diluted with PBST (containing 0.05% Tween 20) at a ratio of 1:1 to 16 gradients of concentrations. [0057] 5) 3 μl protein/dye mixture was transferred into a PCR tube, 3 μl of 16 different concentrations of polypeptides was respectively added and mixed well. [0058] 6) The mixture was absorbed by capillary and loaded on machine (instrument model Monolith NT.115) to assay, parameters were set as 80% LED/excitation power and medium MST power. [0059] 7) MO. Affinity Analysis software was used to calculate the equilibrium dissociation constant KD between α6β4 protein and polypeptide by KD fitting mode.

Integrin α6β4 protein [2] = assay: MST, dye-labelled integrin α6β4, mean of 3 runs
Procedure: as §1

Integrin α6β4 protein [3] = assay: MST, ratio of mean KD against …
Procedure: as §1

Integrin α6β4 protein [4] = assay: MST, dye-labelled integrin α6β4, run 2
Procedure: as §1

Integrin α6β4 protein [5] = assay: MST, dye-labelled integrin α6β4, run 1
Procedure: as §1

Integrin α6β4 protein [6] = assay: MST, integrin α6β4
Integrin α6β1 = assay: MST (FIG. 2B), integrin α6β1
Integrin α6β4 protein [7] = assay: MST, dye-labelled integrin α6β4; unrounded mean of the table's 0.02 µM
Procedure: as §1

Integrin α6β1, sequence (chain, as listed by the source, chain 1 of 2): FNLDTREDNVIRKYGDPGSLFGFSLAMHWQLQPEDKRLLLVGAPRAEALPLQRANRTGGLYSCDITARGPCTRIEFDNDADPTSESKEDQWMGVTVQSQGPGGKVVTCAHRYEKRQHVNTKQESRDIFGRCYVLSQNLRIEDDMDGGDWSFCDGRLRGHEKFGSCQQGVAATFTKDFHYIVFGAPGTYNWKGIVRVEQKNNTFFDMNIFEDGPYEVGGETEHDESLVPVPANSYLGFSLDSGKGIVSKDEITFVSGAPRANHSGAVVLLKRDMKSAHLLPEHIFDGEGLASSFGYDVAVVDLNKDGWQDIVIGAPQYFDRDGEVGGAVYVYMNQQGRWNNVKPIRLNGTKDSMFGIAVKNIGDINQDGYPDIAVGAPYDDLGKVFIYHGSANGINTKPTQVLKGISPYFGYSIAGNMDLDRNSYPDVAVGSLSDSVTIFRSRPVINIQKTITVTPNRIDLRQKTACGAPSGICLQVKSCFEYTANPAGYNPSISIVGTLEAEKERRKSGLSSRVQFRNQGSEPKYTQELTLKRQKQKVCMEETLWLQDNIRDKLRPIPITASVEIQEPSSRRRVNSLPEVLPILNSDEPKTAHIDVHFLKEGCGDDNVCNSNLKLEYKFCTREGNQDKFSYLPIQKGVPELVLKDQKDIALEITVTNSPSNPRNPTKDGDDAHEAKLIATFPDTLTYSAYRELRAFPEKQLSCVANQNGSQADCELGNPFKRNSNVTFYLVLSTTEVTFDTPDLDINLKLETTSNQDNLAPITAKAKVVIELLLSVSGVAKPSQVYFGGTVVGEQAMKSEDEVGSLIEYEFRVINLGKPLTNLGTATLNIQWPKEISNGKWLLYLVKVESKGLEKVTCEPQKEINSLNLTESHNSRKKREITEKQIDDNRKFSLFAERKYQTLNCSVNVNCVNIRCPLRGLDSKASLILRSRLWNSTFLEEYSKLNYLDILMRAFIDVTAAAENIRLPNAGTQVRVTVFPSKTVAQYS
Integrin α6β1, sequence (chain, as listed by the source, chain 2 of 2): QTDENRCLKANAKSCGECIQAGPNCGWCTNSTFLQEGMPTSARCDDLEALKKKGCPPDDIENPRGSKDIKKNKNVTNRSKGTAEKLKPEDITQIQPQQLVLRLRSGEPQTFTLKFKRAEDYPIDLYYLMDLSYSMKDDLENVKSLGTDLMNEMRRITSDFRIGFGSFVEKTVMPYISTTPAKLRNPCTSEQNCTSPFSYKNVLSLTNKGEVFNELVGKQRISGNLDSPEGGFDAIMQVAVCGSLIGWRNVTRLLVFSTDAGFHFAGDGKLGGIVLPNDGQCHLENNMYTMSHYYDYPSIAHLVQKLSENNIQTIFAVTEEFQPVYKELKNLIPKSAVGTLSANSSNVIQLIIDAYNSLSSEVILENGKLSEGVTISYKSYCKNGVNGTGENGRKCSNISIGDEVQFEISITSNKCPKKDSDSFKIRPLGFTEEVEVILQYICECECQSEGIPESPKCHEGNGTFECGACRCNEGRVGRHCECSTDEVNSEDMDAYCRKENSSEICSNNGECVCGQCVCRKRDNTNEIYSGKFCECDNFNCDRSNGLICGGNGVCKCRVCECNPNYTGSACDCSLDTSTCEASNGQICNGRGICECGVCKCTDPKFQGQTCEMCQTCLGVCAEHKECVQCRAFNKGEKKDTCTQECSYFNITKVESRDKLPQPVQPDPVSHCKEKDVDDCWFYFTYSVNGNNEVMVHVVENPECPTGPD

Row | Kd (Integrin α6β4 protein [1]) | Kd (Integrin α6β4 protein [2]) | Affinity relative to RWY (Integrin α6β4 protein [3]) | Kd (Integrin α6β4 protein [4]) | Kd (Integrin α6β4 protein [5]) | Kd (Integrin α6β4 protein [6]) | fold increase of affinity against RWYD-PEG4-K-NOTA (Integrin α6β4 protein [6]) | Kd (Integrin α6β1) | Kd (Integrin α6β4 protein [7]) | Binder
1 | 0.65 µM | 0.41 µM | 17 fold | 0.22 µM | 0.36 µM | – | – | – | – | CRWYAENAC (disulfide 1-9 (inferred), also called P5)
2 | – | – | – | – | – | 0.0648 µM | ~10 fold | – | – | RWYD (not fully specified; each RWYD carries PEG4 at its C-terminus; two RWYD-PEG4 units are joined through lysine, followed by K-NOTA: (RWYD-PEG4)2-K-K-NOTA, also called RD2; RD2 dimer) [(RWYD-PEG4)2-K-K-NOTA]
3 | 99.6 µM | 64.4 µM | 0.11 fold | 78.8 µM | 14.7 µM | – | – | – | – | RWYDE (Straight-chain peptide; also called P13)
4 | – | – | – | – | – | 0.642 µM | – | – | – | RWYD[PEG4′]K-{NOTA′} (The unlabelled form was used in MST; also called RD) [RWYD-PEG4-K-NOTA]
5 | 12.4 µM | 30.7 µM | 0.23 fold | 17.5 µM | 62.1 µM | – | – | – | – | RWYDANA (Straight-chain peptide; also called P10)
6 | 1.37 µM | 0.62 µM | 11.2 fold | 0.25 µM | 0.25 µM | – | – | – | – | CRWYDEAAC (disulfide 1-9 (inferred), also called P7)

Second part, the binder before the results:

Row | Binder | Kd (Integrin α6β4 protein [1]) | Kd (Integrin α6β4 protein [2]) | Affinity relative to RWY (Integrin α6β4 protein [3]) | Kd (Integrin α6β4 protein [4]) | Kd (Integrin α6β4 protein [5]) | Kd (Integrin α6β4 protein [6]) | fold increase of affinity against RWYD-PEG4-K-NOTA (Integrin α6β4 protein [6]) | Kd (Integrin α6β1) | Kd (Integrin α6β4 protein [7])
7 | RWYDEA (Straight-chain peptide; also called P12) | 1.74 µM | 3.16 µM | 2.2 fold | 2.49 µM | 5.26 µM | – | – | – | –
8 | RWYDAN (Straight-chain peptide; also called P11) | 35.7 µM | 31.2 µM | 0.22 fold | 23.2 µM | 34.6 µM | – | – | – | –
9 | CRWYDANAC (disulfide 1-9 (inferred), also called P6) | 3.83 µM | 4.34 µM | 1.61 fold | 7.99 µM | 1.21 µM | – | – | – | –
10 | RWYAEN (Straight-chain peptide; also called P16) | 9.74 µM | 7.71 µM | 0.9 fold | 6.08 µM | 7.31 µM | – | – | – | –
11 | RWYD (also called P15; linear quaternary polypeptide RWYD) | 0.026 µM | 0.02 µM | 327 fold | 0.018 µM | 0.02 µM | – | – | 0.0531 µM | 0.0218 µM
12 | CRWYDENAC (disulfide 1-9 (inferred), also called P1) | 5.81 µM | 6.97 µM | 1 fold | 6.52 µM | 8.59 µM | – | – | – | –
13 | CRAYDENAC (disulfide 1-9 (inferred), also called P3) | 13.8 µM | 13.3 µM | 0.52 fold | 11.8 µM | 14.4 µM | – | – | – | –
14 | RWYDA (Straight-chain peptide; also called P14) | 4.22 µM | 5.06 µM | 1.38 fold | 4.69 µM | 6.28 µM | – | – | – | –
15 | CAWYDENAC (disulfide 1-9 (inferred), also called P2) | 3.58 µM | 6.58 µM | 1.06 fold | 12.1 µM | 4.03 µM | – | – | – | –
16 | RWYDEN (Straight-chain peptide; also called P9) | 13.1 µM | 10.5 µM | 0.66 fold | 8.73 µM | 9.69 µM | – | – | – | –

— patent US20240342320A1 (GUANGZHOU GENBIONOVA MEDICAL TECHNOLOGY, published 2024)
